Assay results from doi:10.1101/2023.01.27.525886 (bioRxiv, 2023).

T1: Vtc3-TAPm (S. cerevisiae, UniProt Q02725 1-835)
T1 sequence: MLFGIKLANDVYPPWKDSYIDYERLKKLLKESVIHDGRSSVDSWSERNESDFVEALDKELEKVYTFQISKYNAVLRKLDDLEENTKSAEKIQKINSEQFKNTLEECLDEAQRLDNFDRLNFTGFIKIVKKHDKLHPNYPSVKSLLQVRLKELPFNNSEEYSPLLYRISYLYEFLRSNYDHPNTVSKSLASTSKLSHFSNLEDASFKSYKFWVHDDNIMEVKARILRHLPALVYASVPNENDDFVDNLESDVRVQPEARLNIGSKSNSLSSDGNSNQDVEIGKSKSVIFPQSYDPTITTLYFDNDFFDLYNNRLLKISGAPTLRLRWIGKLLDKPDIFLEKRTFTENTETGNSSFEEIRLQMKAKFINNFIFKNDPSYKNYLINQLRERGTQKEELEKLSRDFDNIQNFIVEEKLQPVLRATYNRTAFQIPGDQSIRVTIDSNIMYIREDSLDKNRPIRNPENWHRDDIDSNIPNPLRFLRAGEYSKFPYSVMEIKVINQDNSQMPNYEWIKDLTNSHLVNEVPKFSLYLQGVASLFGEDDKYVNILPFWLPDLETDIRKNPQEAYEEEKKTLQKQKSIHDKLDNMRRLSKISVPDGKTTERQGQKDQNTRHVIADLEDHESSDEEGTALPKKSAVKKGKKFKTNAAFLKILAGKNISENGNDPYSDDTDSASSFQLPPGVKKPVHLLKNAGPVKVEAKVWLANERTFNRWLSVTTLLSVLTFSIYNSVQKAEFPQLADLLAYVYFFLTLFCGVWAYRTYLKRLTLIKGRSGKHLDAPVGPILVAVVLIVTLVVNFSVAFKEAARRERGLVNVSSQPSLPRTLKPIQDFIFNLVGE

B1: Vtc1 (natural protein)
chain: MSSAPLLQRTPGKKIALPTRVEPKVFFANERTFLSWLNFTVMLGGLGVGLLNFGDKIGRVSAGLFTFVAMGTMIYALVTYHWRAAAIRRRGSGPYDDRLGPTLLCFFLLVAVIINFILRLKYNDANTKL
B2: Vtc4 (natural protein)
chain: MKFGEHLSKSLIRQYSYYYISYDDLKTELEDNLSKNNGQWTQELETDFLESLEIELDKVYTFCKVKHSEVFRRVKEVQEQVQHTVRLLDSNNPPTQLDFEILEEELSDIIADVHDLAKFSRLNYTGFQKIIKKHDKKTGFILKPVFQVRLDSKPFFKENYDELVVKISQLYDIARTSGRPIKGDSSAGGKQQNFVRQTTKYWVHPDNITELKLIILKHLPVLVFNTNKEFEREDSAITSIYFDNENLDLYYGRLRKDEGAEAHRLRWYGGMSTDTIFVERKTHREDWTGEKSVKARFALKERHVNDFLKGKYTVDQVFAKMRKEGKKPMNEIENLEALASEIQYVMLKKKLRPVVRSFYNRTAFQLPGDARVRISLDTELTMVREDNFDGVDRTHKNWRRTDIGVDWPFKQLDDKDICRFPYAVLEVKLQTQLGQEPPEWVRELVGSHLVEPVPKFSKFIHGVATLLNDKVDSIPFWLPQMDVDIRKPPLPTNIEITRPGRSDNEDNDFDEDDEDDAALVAAMTNAPGNSLDIEESVGYGATSAPTSNTNHVVESANAAYYQRKIRNAENPISKKYYEIVAFFDHYFNGDQISKIPKGTTFDTQIRAPPGKTICVPVRVEPKVYFATERTYLSWLSISILLGGVSTTLLTYGSPTAMIGSIGFFITSLAVLIRTVMVYAKRVVNIRLKRAVDYEDKIGPGMVSVFLILSILFSFFCNLVAK

How the values were obtained:
Vtc4 = target: B2; assay: cryo-EM structure
cryo-EM structure = target: the molecule itself; assay: cryo-EM structure
Vtc3-TAPm [1] = target: T1, Vtc3-TAPm; assay: affinity co-purification of the endogenous complex
Vtc3-TAPm [2] = target: T1, Vtc3-TAPm; assay: cryo-EM structure

stoichiometry N (Vtc4)	binding result (Vtc3-TAPm [1])	stoichiometry N (Vtc3-TAPm [2])	Binder	binding result (cryo-EM structure)
3 Vtc1 per Vtc4	binds		B1	binds
		1 Vtc4 per Vtc3	B2	
